Experimental data: paper PMC10136936

Target: Recombinant hemagglutinin from influenza A/California/04/2009 (H1N1), amino acids 1-519 (Influenza A/California/04/2009 (H1N1)) (UniProt C3W5S1)
Experiment: SEC

## Recombinant hemagglutinin from influenza A/California/04/2009 (H1N1), amino acids 1-519 (from UniProt C3W5S1 1-519) (domain or fragment)
  stoichiometry N: 3
